Values quoted from earlier work in patent US20250108009A1, “METHOD FOR SYNTHESIZING HYBRID NANOPARTICLES COMPRISING APOLIPOPROTEINS” (MEPSGEN CO., LTD., priority 2022, published 2025).

Settings: Bekard et al. 2011

Substance: insulin
- shear rate at which structural changes and aggregates are formed: 200 s⁻¹
- shear stress at which structural changes and aggregates are formed: 1000 dyne/cm^2
